Measurements as given in publication PMC4880913, “Solution structure and binding specificity of the p63 DNA binding domain”.

Experiments:
p63-DBD = target: T1, p63-DBD (UniProt Q9H3D4 153-388); assay: NMR titration (1H-15N TROSY); 100 mM NaCl; FP: 100 nM 5'-fluorescein dsDNA, 10 mM sodium phosphate pH 7.2, 1 mM DTT, temperature not stated; NMR: 1 mM sodium phosphate pH 7.2, 100 mM NaCl, 5 mM DTT, 303; details: protein: recombinant; tags: His-tag removed with thrombin (pET28a construct); blunt
T1 sequence: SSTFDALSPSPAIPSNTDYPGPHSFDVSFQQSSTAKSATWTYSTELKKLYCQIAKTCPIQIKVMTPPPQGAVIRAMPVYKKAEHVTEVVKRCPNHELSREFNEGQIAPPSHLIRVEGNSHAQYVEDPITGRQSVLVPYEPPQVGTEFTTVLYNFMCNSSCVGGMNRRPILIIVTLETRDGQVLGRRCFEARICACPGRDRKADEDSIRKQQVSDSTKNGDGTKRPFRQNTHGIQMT

p63-DBD L210E = target: T2, p63-DBD L210E (UniProt Q9H3D4 153-388, L249E); assay: fluorescence polarization; FP: 100 nM 5'-fluorescein dsDNA, 10 mM sodium phosphate pH 7.2, 1 mM DTT, temperature not stated; NMR: 1 mM sodium phosphate pH 7.2, 100 mM NaCl, 5 mM DTT, 303; details: protein: recombinant; label: 5'-fluorescein; blunt
T2 sequence: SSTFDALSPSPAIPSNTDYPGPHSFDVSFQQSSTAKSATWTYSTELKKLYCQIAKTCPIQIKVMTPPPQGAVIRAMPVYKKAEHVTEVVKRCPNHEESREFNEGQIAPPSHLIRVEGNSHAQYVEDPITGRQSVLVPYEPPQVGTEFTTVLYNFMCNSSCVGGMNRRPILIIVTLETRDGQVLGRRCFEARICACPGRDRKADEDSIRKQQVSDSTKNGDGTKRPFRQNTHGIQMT

p53-DBD = p53-DBD (UniProt P04637 94-312); assay: as above; details: protein: recombinant; chain copies: 2; label: 5'-fluorescein; blunt
Chain of p53-DBD (P04637 94-312): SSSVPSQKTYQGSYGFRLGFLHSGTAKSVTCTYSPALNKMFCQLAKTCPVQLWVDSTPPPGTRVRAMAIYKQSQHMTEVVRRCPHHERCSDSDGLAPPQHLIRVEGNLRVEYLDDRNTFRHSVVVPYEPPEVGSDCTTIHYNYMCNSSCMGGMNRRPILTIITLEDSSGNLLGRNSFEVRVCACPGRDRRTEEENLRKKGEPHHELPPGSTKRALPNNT

Binder | binding result (p63-DBD) | binding result (p63-DBD L210E) | binding result (p53-DBD)
con2 x 5 (NMR) (dsDNA) DNA 1: TTAGGACATGTCCATC DNA 2: GATGGACATGTCCTAA | binds |  | 
con2 x 5 (FP) (dsDNA) DNA 1: TTAGGACATGTCCATC DNA 2: GATGGACATGTCCTAA |  | binds | binds
